B1: G3a: non-stabilizing nanobody, SEQ ID NO:50, recognizes the structurally diverse region of NBD1 (protein)
VHH: QVQLQESGGGLVQAGGSLRLSCTASGRAFSWYVMGWFRQAPGKEREFVATVSGNGSRRDYADSVKGRFTISRDNAKNTVYLQMNSLKPEDTAVYYCAASSTYYYTDPEKYDYWGQGTQVTVSS
modifications: G3a Nanobody
B2: T8: nanobody, SEQ ID NO:7, binds epitope 2 including F508, stabilizes WT CFTR but not F508del (protein)
VHH: QVQLQESGGGLVQPGGSLRLSCAASGSTSSINAMGWYRQAPGKQREPVAISSSGGDTRYAEPVKGRFTISRDNAQNKVYLQMNSLKPEDTAVYYCWLNWGRTSVNSWGQGTQVTVSS
modifications: T8 Nanobody amino acid sequence
B3: D12: NBD1-specific CFTR-stabilizing nanobody, SEQ ID NO:2, binds epitope 1 (protein)
VHH: QVQLQESGGGLVQAGSSLRLACAATGSIRSINNMGWYRQAPGKQRGMVAIITRVGNTDYADSVKGRFTISRDNAKNTVYLQMNSLKPEDTATYYCHAEITEQSRPFYLTDDYWGQGTQVTVSS
modifications: D12 Nanobody amino acid sequence
B4: T2a: NBD1-specific CFTR-stabilizing nanobody, SEQ ID NO:3, binds epitope 1 (protein)
VHH: QVQLQESGGGLVQAGGSLRLSCAASGSIFRIDAMGWYRQAPGKQRELVAHSTSGGSTDYADSVKGRFTISRDNAKNTVYLQMNSLKPEDTAVYYCNADVRTRWYASNNYWGQGTQVTVSS
modifications: T2a Nanobody amino acid sequence

Columns and labels:
[1] = target: T1, purified human CFTR (wt-CFTR) (Homo sapiens, UniProt P13569); assay: Full-length CFTR ELISA; format: binding; conditions: for Bmax: immobilized CFTR, nanobodies titrated; for binding of purified FL-CFTR: nanobodies immobilized, purified FL-CFTR titrated
T1 construct: His10-SUMO* (N); FLAG; EGFP (C); made in house; host or cells: HEK 293 cell line D165
T1 sequence (P13569 whole entry): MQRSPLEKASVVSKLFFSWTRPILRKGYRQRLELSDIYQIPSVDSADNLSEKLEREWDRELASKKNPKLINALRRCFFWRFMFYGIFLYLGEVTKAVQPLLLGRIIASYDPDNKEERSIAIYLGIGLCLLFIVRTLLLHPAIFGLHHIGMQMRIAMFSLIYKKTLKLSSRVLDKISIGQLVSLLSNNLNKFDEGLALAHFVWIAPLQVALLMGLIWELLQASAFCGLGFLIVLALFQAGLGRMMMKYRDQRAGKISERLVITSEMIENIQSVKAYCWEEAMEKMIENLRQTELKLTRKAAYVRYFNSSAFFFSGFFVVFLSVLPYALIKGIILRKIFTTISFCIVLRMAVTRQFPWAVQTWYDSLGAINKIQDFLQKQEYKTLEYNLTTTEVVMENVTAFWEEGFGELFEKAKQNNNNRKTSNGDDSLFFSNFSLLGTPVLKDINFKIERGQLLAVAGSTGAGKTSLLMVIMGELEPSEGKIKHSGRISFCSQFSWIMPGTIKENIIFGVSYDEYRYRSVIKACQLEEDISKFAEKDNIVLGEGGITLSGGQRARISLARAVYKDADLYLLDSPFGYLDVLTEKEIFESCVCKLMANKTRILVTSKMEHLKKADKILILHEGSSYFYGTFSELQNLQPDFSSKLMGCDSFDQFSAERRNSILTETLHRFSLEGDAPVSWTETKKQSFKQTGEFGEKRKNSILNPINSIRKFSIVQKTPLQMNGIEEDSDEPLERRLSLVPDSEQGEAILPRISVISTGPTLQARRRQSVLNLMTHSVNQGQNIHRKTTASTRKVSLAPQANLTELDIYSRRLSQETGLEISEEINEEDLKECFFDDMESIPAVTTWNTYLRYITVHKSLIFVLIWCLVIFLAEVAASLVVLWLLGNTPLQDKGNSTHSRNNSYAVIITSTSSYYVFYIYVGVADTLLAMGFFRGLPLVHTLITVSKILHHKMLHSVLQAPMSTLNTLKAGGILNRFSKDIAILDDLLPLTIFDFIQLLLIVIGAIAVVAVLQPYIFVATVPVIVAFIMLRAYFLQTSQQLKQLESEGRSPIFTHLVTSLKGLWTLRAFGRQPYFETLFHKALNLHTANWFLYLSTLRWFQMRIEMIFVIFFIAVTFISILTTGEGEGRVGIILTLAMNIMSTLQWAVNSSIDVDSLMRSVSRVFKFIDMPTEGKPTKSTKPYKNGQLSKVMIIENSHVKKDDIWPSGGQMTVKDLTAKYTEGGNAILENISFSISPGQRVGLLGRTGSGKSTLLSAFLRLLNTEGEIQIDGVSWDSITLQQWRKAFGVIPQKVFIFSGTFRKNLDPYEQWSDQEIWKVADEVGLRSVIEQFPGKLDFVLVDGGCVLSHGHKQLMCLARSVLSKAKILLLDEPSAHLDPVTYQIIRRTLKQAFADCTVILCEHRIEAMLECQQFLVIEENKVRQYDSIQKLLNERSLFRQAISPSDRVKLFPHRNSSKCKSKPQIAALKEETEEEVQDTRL
Description: Strep-Tactin XT coated microplate (iba Life Science) was coated overnight at 4° C. with Twin-Strep-tagged nanobodies (5 μg/ml). Plate was blocked with 4% milk for 2 h at RT. Then different concentrations of CFTR (10^−10 to 10^−8 M) were incubated for 2 h at 4° C. CFTR binding was detected with monoclonal antibodies L12B4, MM13, 154, 660, 570, 596 specific to CFTR obtained from the CFTR Antibody Distribution Program (http://cftrantibodies.web.unc.edu/available-antibodies)46 and then anti-mouse-HRP antibody (Millipore, catalogue number: AP308P, 0.5 μg/ml) for 1 h 30 min at 4° C. For Bmax determination Pierce Nickel Coated Plate (ThermoScientific) was coated 1 h at 4° C. with CFTR (8 μg/ml). Plate was blocked with 4% milk for 2 h at 4° C. Then different concentrations of nanobodies (10^−9 to 10^−6 M) were incubated for 2 h at 4° C. Nanobody binding was detected with Myc-tag specific antibody (Sigma, catalogue number: C3956, 0.5 μg/ml) and then anti-rabbit-HRP antibody (Cell Signaling, catalogue number: 7074S, 1:1000 dilution) for 1 h 30 min at 4° C. Between each step wells were washed 3 times by aspiration with 50 mM HEPES pH 7.5, 150 mM NaCl, 10% glycerol, 2 mM ATP, 2.5 mM MgCl2, 0.01% DMNG (Anatrace). Incubations were performed in the same buffer with 0.4% milk. Reaction was visualized by using 1-Step Ultra TMB-ELISA (ThermoScientific) and stopped with H2SO4 (500 mM final). Absorbance was measured at 450 nm using SynergyMx (BioTek).
Affinity constants (KD) and thermodynamic parameters from ITC experiments were determined using one-site binding model with MicroCal Origin 7.0 software (Origin Lab Corp.). Dose response ELISA curves of each Nb binding to either isolated NBD1 or purified FL-CFTR were fitted using the sigmoidal dose-response equation from GraphPad Prism 3. DSC data were analyzed with the MicroCal Origin 7.0 software (Origin Lab Corp.), from which the unfolding temperature (Tm) was obtained.

wt-CFTR = wt-CFTR (Homo sapiens, UniProt P13569); assay: Thermal inactivation of CFTR (residual ATPase activity after heat challenge); format: biochemical; set-up: His10-SUMO* (N); FLAG; EGFP (C); made in house; host or cells: HEK 293 cell line D165; conditions: residual ATPase activity after 30 min heat challenge
wt-CFTR, sequence (P13569 whole entry): as above
Description: To determine effect of nanobodies on functional stability, aliquots of purified wt-CFTR (25 nM) were preincubated 1 h on ice with 1 μM nanobody (or 15 μM, in the case of G3a). Substrate α-[32P]-ATP (2 μl) was then added for measurement of ATPase activity as previously described^[48]. Then, nanobody protection against thermal denaturation was determined after a 30 min thermal challenge of the protein complexes followed by an assay of residual ATPase.

[2] = target: T2, stab-CFTR: 2PT/ΔRI/R1048A_1172X (Homo sapiens, UniProt P13569, A534P/DEL405-436/I539T/R1048A/S492P); assay: NanoDSF thermostability of stab-CFTR; format: binding; conditions: versus stab-CFTR alone
T2 construct: made in house; host or cells: BHK-21 cells (ATCC CCL-10), pNUT vector
T2 sequence (P13569 with tags, fused parts or gaps DEL405-436/S492P/A534P/I539T/R1048A limits assumed): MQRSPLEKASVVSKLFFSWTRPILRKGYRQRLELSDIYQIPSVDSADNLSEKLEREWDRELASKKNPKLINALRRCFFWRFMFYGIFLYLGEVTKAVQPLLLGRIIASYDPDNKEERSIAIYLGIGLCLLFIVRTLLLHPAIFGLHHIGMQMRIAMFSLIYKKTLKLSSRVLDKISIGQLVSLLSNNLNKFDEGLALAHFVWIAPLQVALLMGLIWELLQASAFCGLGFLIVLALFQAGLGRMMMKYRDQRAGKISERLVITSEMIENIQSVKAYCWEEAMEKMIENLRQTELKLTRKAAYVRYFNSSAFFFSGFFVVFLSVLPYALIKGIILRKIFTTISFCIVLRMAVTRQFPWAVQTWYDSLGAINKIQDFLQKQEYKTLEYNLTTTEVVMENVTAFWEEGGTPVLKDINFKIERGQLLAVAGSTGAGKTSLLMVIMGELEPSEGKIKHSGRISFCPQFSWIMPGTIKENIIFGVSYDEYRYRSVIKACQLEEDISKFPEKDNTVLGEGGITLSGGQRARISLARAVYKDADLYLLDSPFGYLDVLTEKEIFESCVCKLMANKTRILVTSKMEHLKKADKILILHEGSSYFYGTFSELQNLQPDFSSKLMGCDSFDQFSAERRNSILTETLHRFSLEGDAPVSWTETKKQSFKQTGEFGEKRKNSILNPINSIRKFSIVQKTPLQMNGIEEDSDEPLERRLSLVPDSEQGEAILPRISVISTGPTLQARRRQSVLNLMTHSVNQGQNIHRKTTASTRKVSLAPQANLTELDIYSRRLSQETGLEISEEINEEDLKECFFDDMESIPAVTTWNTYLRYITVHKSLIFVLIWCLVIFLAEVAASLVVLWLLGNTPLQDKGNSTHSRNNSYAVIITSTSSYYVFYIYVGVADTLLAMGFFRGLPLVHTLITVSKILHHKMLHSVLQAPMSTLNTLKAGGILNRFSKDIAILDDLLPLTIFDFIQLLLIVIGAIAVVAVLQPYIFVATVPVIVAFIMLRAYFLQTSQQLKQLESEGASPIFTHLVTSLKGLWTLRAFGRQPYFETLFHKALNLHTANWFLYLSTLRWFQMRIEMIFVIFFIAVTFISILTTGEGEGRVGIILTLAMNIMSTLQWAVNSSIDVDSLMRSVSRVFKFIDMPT
Description: Purified stabilized human CFTR (stab-CFTR: 2PT/ΔRI/R1048A_1172X) was concentrated to 0.5 mg/ml and mixed with 0.1 mg/ml nanobody (^˜[…]) and capillaries were loaded with a volume of 10 The capillaries were placed into trays of Prometheus NT.48 (Nanotemper) and subjected to the fluorescence analysis. The emission of fluorescent radiation with the wavelengths of 330 nm and 350 nm was measured with the temperature changes from 25 to 85° C., with the rate of 1° C. min-1. The first derivative of 350 nm fluorescence was used to determine the melting temperature of the proteins.

F508del-CFTR = target: T3, F508del-CFTR (Homo sapiens, UniProt P13569, DEL508-508); assay: Forskolin induced organoid swelling (FIS) assay; format: cell-based; conditions: F508del homozygous intestinal organoids, lentiviral Nb, 3 μM VX-809 24 h before, Fsk and 3 μM VX-770, 2 h
T3 construct: expressed in transfected cells
T3 sequence (P13569 with tags, fused parts or gaps DEL508-508): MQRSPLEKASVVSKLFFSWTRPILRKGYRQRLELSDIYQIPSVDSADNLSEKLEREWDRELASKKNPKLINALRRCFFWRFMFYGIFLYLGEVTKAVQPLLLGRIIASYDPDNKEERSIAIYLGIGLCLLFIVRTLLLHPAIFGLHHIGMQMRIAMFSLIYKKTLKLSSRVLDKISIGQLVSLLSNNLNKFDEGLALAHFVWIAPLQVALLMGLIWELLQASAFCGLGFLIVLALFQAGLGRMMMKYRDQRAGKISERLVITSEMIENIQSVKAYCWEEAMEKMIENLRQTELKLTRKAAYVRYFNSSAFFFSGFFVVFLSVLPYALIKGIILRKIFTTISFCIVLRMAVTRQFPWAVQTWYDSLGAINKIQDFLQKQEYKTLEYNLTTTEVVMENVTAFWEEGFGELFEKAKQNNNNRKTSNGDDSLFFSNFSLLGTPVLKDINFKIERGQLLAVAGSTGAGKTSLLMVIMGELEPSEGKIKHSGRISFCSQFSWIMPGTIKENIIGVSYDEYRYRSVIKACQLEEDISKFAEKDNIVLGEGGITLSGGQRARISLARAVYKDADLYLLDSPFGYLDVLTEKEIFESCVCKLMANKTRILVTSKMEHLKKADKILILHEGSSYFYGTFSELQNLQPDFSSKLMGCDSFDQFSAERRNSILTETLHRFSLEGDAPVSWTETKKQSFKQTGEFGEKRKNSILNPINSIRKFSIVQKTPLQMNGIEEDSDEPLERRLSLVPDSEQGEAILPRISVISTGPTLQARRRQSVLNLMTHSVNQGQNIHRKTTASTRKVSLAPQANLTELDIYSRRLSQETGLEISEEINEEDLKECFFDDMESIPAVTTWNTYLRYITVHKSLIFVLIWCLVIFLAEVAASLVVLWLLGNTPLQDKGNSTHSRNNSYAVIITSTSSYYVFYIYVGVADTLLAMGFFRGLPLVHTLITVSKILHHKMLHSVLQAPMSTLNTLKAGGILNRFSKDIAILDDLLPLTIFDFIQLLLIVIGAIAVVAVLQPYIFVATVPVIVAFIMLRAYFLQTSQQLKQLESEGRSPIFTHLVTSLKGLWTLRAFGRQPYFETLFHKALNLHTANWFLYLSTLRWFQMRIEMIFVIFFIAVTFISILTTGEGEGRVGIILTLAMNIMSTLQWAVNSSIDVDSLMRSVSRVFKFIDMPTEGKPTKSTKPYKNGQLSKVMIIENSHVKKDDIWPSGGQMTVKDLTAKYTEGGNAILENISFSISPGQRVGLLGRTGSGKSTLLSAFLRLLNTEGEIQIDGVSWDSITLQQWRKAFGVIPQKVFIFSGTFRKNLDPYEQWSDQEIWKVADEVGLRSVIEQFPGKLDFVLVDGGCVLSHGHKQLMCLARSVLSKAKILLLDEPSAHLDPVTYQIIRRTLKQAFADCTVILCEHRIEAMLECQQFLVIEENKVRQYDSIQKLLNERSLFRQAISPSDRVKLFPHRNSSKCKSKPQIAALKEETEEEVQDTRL
Source text: Intestinal organoids are 3D epithelial structures grown from a single Lgr5+ stem cell (originating from the crypts of the GI-tract) with an internal lumen that recapitulates key features of the intestinal tissue architecture. When differentiated, the organoids form villus and crypt-like structures. CFTR is located at the apical membrane lining the internal lumen and its activation leads to rapid organoid swelling, in direct correlation with the amount of functional CFTR. This model system thus provides a physiologically relevant assay to evaluate the potential of new therapies with high translational value. CF patient-derived organoids expressing F508del-CFTR from two alleles were transduced with lentiviral vectors encoding the sequence of either a stabilizing nanobody (T2a) or a control nanobody. 24 h before FIS assay, corrector 3 μM VX-809 or DMSO was added. Organoids were stimulated by Fsk (0,8 μM) and 3 μM VX-770 just before FIS. […]
Transduction of human intestinal organoids was performed as described previously (Vidovic, Carlon et al. 2016, Ensinck, De Keersmaecker et al. 2020). […] Organoids were stimulated with forskolin (5 μM) and VX-770 (3 μM) or DMSO, and analyzed by confocal live cell microscopy at 37° C. for 120 min (LSM800, Zeiss, Zen Blue). The total organoid area increase relative to t=0 of forskolin treatment was quantified.

Row | Molecule | Bmax [1] | binding of purified FL-CFTR [1] | shift of CFTR thermal inactivation (wt-CFTR) [°C] | thermostabilization of stab-CFTR (Tm increase) [2] [°C] | CFTR response (relative increase in organoid surface area) (F508del-CFTR)
1 | B1 | about 50 % of T2a maximum signal | bind with high affinity | 3.1 |  | 
2 | B2 | ~30 % of T2a maximum signal | bind with high affinity |  |  | 
3 | B3 |  |  | 7 |  | 
4 | B4 |  | bind with high affinity |  | 8 | significantly increased CFTR functionality over time
